In US20230295324A1 (published 2023):

T1: human OX40 on cells (CHO-K1/hu OX40) (human, UniProt P43489 29-277)
T1 construct: whole, on cells; Also used here for OX40 on the HEK293/OX40/NF-kb reporter cells and on human T cells in the functional assays; also called CHO-K1/OX40; human OX40 cells
T1 sequence (looked up): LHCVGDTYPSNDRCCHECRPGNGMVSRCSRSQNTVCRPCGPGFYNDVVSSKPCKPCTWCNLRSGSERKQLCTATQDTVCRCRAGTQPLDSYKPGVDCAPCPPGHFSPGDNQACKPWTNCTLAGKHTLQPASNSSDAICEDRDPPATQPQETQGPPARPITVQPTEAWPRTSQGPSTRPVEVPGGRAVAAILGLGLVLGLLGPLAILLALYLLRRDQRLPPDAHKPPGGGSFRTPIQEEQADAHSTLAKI

T2: human OX40 protein (Acro biosystem, #OX0-H5224) (human, UniProt P43489 29-216)
T2 construct: Bought recombinant protein
T2 sequence (looked up): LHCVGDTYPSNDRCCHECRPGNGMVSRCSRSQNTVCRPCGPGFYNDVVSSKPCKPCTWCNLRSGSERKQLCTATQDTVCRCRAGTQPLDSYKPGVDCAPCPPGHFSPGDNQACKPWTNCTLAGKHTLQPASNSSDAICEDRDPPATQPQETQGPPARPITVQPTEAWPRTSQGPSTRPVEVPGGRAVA


Experiments:
[1] = target: T1, human OX40 on cells (CHO-K1/hu OX40); assay: FACS, CHO-K1/hu OX40 cells
Procedure: This example is intended to investigate the in vitro binding activity of anti-human OX40 HCAb monoclonal antibodies to human OX40. The antibody binding assay at the cellular level was performed using a stable CHO-K1 cell strain overexpressing human OX40 (CHO-K1/hu OX40). Briefly, the CHO-K1/hu OX40 cells were digested, resuspended in an F12K complete medium and washed once with PBS. The cell density was adjusted to 1×10⁶ cells/mL with PBS. The cells were seeded in a 96-well V-bottom plate (Corning, #3894) at 100 μL/well, and centrifuged, and then the supernatant was discarded. Then, the test antibodies diluted in a 3-fold gradient at concentrations that were 2 times the final concentrations were added at 100 μL/well. The cells were incubated at 4° C. for 1 h away from light. Thereafter, the cells in each well were rinsed twice with 100 μL of pre-cooled PBS, and centrifuged at 500 g at 4° C. for 5 min, and then the supernatant was discarded. […] The plate was incubated away from light at 4° C. for 30 min. The cells in each well were rinsed twice with 100 μL of pre-cooled PBS, and centrifuged at 500 g at 4° C. for 5 min, and then the supernatant was discarded. Finally, the cells in each well were resuspended in 200 μL of pre-cooled PBS, and the fluorescence signal values were read using a BD FACS CANTOII.

[2] = target: T1, human OX40 on cells (CHO-K1/hu OX40); assay: FACS, blocking of biotin-human OX40L on CHO-K1/hu OX40 cells
Procedure: Briefly, the CHO-K1/hu OX40 cells were digested and resuspended in an F-12K complete medium, and the cell density was adjusted to 1×10⁶ cells/mL. The cells were seeded in a 96-well V-bottom plate (Corning, #3894) at 100 μL/well, and centrifuged, and then the supernatant was discarded. The test antigen-binding proteins diluted in a 3-fold gradient at concentrations that were 2 times the final concentrations were added at 100 μL/well, and the mixture was well mixed, wherein the antigen-binding protein had the highest final concentration of 100 nM, and a total of 8 concentrations were obtained. […] The cells were incubated at 4° C. for 1 h away from light. Thereafter, the cells were centrifuged at 4° C. for 5 min, and then the supernatant was discarded. […] The cells in each well were rinsed twice with 100 μL of pre-cooled PBS, and centrifuged at 500 g at 4° C. for 5 min, and then the supernatant was discarded. A 1:200 fluorescent secondary antibody PE Streptavidin (BD Biosciences, #554061) was added at 100 μL/well, and the cells were incubated away from light at 4° C. for 30 min. The cells in each well were rinsed twice with 200 μL of pre-cooled PBS, and centrifuged at 500 g at 4° C. for 5 min, and then the supernatant was discarded. Finally, the cells in each well were resuspended in 200 μL of precooled PBS. Fluorescence signal values were read using BD FACS CANTOII, and IC50 was calculated. Inhibition rate %={average MFI of non-blocking control well−MFI value of OX40 antibody}/{(average MFI of non-blocking control well)−average MFI of 100% blocking control well)}×100%.

[3] = target: T2, human OX40 protein (Acro biosystem, …); assay: BLI, antibody on ProA sensor, 1:1 global fit
Procedure: (§1) The binding kinetics between the antigen and the antibody was analyzed by the Biolayer Interferometry (BLI) technique using an Octet Red 96e molecular interaction analyzer (Fortebio).
(§2) The association and dissociation signals between the OX40 antibodies and OX40 proteins were recorded by Octet Red 96 in real time. When data analysis was performed using Octet Data Analysis software (Fortebio, version 11.0), 0 nM was used as a reference hole, and reference subtraction was performed; the “1:1 Global fitting” method was selected to fit the data, and the kinetics parameters of the binding of antigens to antigen-binding proteins were calculated, with kon(1/Ms) values, kdis(1/s) values and KD(M) values obtained.

[4] = target: T3, cynomolgus monkey OX40 protein (Novoprotein, #CB17) (cynomolgus monkey); assay: BLI, antibody on ProA sensor, 1:1 global fit
T3 construct: Bought recombinant protein; also called cyno OX40
Procedure: as §1, §2

[5] = target: T3, cynomolgus monkey OX40 protein …; assay: ELISA, coated cyno OX40 protein
Procedure: (§3) This example is intended to investigate the in vitro binding activity of the anti-OX40 HCAb monoclonal antibodies prepared in Example 1 to human and cynomolgus monkey OX40 proteins. The antibody binding assay at the protein level was performed using a human OX40 protein (Acro biosystem, #OX0-H5224) and a cynomolgus monkey OX40 protein (Novoprotein, #CB17). Briefly, a 384-well plate (PerkinElmer, #6007509) was coated with 1 μg/mL human OX40 protein and a cynomolgus monkey OX40 protein dissolved in PBS at 20 μL/well, and incubated at 4° C. overnight. The next day, the 384-well plate was washed three times with PBS containing 0.05% Tween (MEDICAGO, #09-9410-100), and blocked with PBS containing 2% milk (Bio-Rad, #170-6404) at 37° C. for 1 h. […] The plate was added with a stop buffer (BBI life sciences, #E661006-0200) at 20 μL/well, and read for OD₄₅₀₋₆₅₀ values using a plate reader (Molecular Devices, model: SpectraMax Plus). The values were analyzed with Graphad 8.0 and plotted.

[6] = target: T2, human OX40 protein (Acro biosystem, …); assay: ELISA, coated human OX40 protein
Procedure: as §3

[7] = target: T1, human OX40 on cells (CHO-K1/hu OX40); assay: cell-based or functional assay

| EC50 [1] | Maximum MFI [1] | Maximum inhibition rate (%) [2] | Kd [3] | koff [3] | kon [3] | Kd [4] | koff [4] | kon [4] | EC50 [5] | Maximum OD [5] | EC50 [6] | Maximum OD [6] | EC50, HEK293/OX40/NF-kb luciferase reporter [7] | Maximum fluorescence signal value, HEK293/OX40/NF-kb luciferase reporter [7] | IC50 [2] | Binder |
| --- | --- | --- | --- | --- | --- | --- | --- | --- | --- | --- | --- | --- | --- | --- | --- | --- |
| 24.6 nM | 1380 MFI | 0% | – | – | – | – | – | – | 0.116 nM | 2.05 OD | 0.065 nM | 2.8 OD | 67 nM | 141000 luminescence | – | PR002076 (antibody, human IgG1, V domains shown, no light chain; also called anti-OX40 HCAb antibody) VH: EVQLLESGGGLVQPGGSLRLSCAASGFTFSSYAMSWVRQAPGKGLEWVSAISGSGGNTYYADSVRGRFTISRDNSKNTLYLQMNSLRAEDTAVYYCANGMTGTTDVDYWGQGTRVTVSS |
| 6.55 nM | 3260 MFI | 24% | – | – | – | – | – | – | 0.146 nM | 2.55 OD | 0.085 nM | 2.38 OD | 6.39 nM | 121000 luminescence | 75.2 nM | PR002073 (antibody, human IgG1, V domains shown, no light chain; also called anti-OX40 HCAb antibody) VH: EVQLVESGGGLVQPGGSLRLSCAASGFTFSSYAMSWVRQAPGKGLEWVSAISGGSGSTFYADSVRGRFTISRDNSKNTLYLQMNSLRAEDTAVYYCADGVTGTDFDFWGQGTLVTVSS |
| 1.27 nM | 3540 MFI | 81% | – | – | – | – | – | – | 0.14 nM | 2.34 OD | 0.0512 nM | 2.35 OD | 3.08 nM | 84800 luminescence | 43.1 nM | PR002074 (antibody, human IgG1, V domains shown, no light chain; also called anti-OX40 HCAb antibody) VH: EVQLLESGGGLVQPGGSLRLSCAASGFTFSSYAMSWVRQAPGKGLEWVSGISGGGNNTFYADSVRGRFTISRDNSKNTLYLQMNSLRAEDTAVYYCMRGWELPLLENWGQGTLVTVSS |
| – | – | – | – | – | – | 0.0894 nM | – | – | 0.194 nM | 2.23 OD | – | – | – | – | – | Pogalizumab analog (PR003475) (antibody, human IgG1, kappa, V domains shown, Conventional IgG antibody; also called Tab) VH: EVQLVQSGAEVKKPGASVKVSCKASGYTFTDSYMSWVRQAPGQGLEWIGDMYPDNGDSSYNQKFRERVTITRDTSTSTAYLELSSLRSEDTAVYYCVLAPRWYFSVWGQGTLVTVSS VL: DIQMTQSPSSLSASVGDRVTITCRASQDISNYLNWYQQKPGKAPKLLIYYTSRLRSGVPSRFSGSGSGTDFTLTISSLQPEDFATYYCQQGHTLPPTFGQGTKVEIKR |

More lines, now with the values behind:

| Binder | EC50 [1] | Maximum MFI [1] | Maximum inhibition rate (%) [2] | Kd [3] | koff [3] | kon [3] | Kd [4] | koff [4] | kon [4] | EC50 [5] | Maximum OD [5] | EC50 [6] | Maximum OD [6] | EC50, HEK293/OX40/NF-kb luciferase reporter [7] | Maximum fluorescence signal value, HEK293/OX40/NF-kb luciferase reporter [7] | IC50 [2] |
| --- | --- | --- | --- | --- | --- | --- | --- | --- | --- | --- | --- | --- | --- | --- | --- | --- |
| PR002063 (antibody, human IgG1, V domains shown, no light chain; also called anti-OX40 HCAb antibody) VH: EVQLLESGGGLVQPGGSLRLSCAASGFTFSSYAMSWVRQAPGRGLEWVSAISGGGGSTFYADSVRGRFTISRDNSKNTLYLQMSSLRAEDTAVYYCANGMTGTTDVDYWGQGTRVTVSS | 9 nM | 2240 MFI | 17% | 13 nM | 0.000511 s⁻¹ | 39200 M⁻¹ s⁻¹ | 53.4 nM | 0.00192 s⁻¹ | 36000 M⁻¹ s⁻¹ | 0.276 nM | 2.32 OD | 0.101 nM | 2.28 OD | 8.64 nM | 150000 luminescence | – |
| PR002072 (antibody, human IgG1, V domains shown, no light chain; also called anti-OX40 HCAb antibody) VH: EVQLLESGGGLVQPGGSLRLSCAASGFTFSSYAMSWVRQASGKGLEWISAISGSGGSTYYADSVRGRFTISRDNSKNTLYLQMNSLRADDTAVYYCANGMTGTTDVDFWGQGTPVTVSS | 5.64 nM | 1400 MFI | 14% | – | – | – | – | – | – | 0.217 nM | 2.97 OD | 0.0577 nM | 2.47 OD | 14.2 nM | 99600 luminescence | – |
| PR002071 (antibody, human IgG1, V domains shown, no light chain; also called anti-OX40 HCAb antibody) VH: EVQLVESGGGLVQPGGSLRLSCAASGFTFSSYAMSWVRQAPGKGLEWVSAISGGGGSIFYADSVRGRFTISRDNSKNTLYLQMNSLRAEDTAVYYCANGMTGTTDVDYWGQGTLVTVSS | 4 nM | 3060 MFI | 50% | – | – | – | – | – | – | 0.202 nM | 2.93 OD | 0.0502 nM | 2.45 OD | 7.85 nM | 144000 luminescence | 51.7 nM |
| PR002065 (antibody, human IgG1, V domains shown, no light chain; also called anti-OX40 HCAb antibody) VH: EVQLVESGGGLVQPGGSLRLSCAASGFTFSSYAMSWVRQAPGKGLEWVSAISGRGDITFYADSVRGRFTISRDNSKNTLYLQMNSLRAEDTALYYCANGMTGSTDVDFWGQGTLVTVSS | 3.82 nM | 2860 MFI | 44% | 6.79 nM | 0.000337 s⁻¹ | 49600 M⁻¹ s⁻¹ | 33.7 nM | 0.00104 s⁻¹ | 30800 M⁻¹ s⁻¹ | 0.103 nM | 1.92 OD | 0.0639 nM | 2.47 OD | 8.55 nM | 149000 luminescence | 49.6 nM |
| PR002058 (antibody, human IgG1, V domains shown, no light chain; also called anti-OX40 HCAb antibody) VH: EVQLLESGGGLVQPGGSLRLSCAASGFTFSSYAMSWVRQAPGKGLEWVSAISGGSGSTFYADSVRGRFTISRDNSKNTLYLQMNSLRAEDTAVYYCADGVTGTDFDFWGQGTLVTVSS | 5.79 nM | 3560 MFI | 38% | – | – | – | – | – | – | 0.0597 nM | 1.76 OD | 0.0629 nM | 1.94 OD | 4.29 nM | 136000 luminescence | 98.1 nM |
